Measured values from patent US7387779B2, “Anti-angiogenic proteins and fragments and methods of use thereof” (Beth Israel Deaconess Medical Center, priority 1998, dated 2008).

Tests used:
Caspase-3 in C-PAE cells = assay: Caspase-3 assay; type: cell-based, bovine; conditions: for effect on Caspase-3 activity: 5 μg/ml
Procedure: (§1) Tumstatin also altered cell morphology of C-PAE cells as monitored by phase contrast microscopy. After treating cells with 20 μg/ml of Tumstatin in the presence of 10% FCS for 24 hours on fibronectin-coated plates, the typical morphological features of apoptotic cells, membrane blebbing, cytoplasmic shrinkage, and chromatin condensation could be observed. […] Caspase-3 assay: Caspase-3 (CPP32) is an intracellular protease activated at the early stage of apoptosis, and initiates cellular breakdown by degrading structural and DNA repair proteins (Casciola-Rosen, L. et al., 1996, J. Exp. Med. 183:1957-64; Salvesen, G. S. et al., 1997, Cell 91:443-46). The protease activity of Caspase-3 was measured spectrophotometrically by detection of the chromophore (p-nitroanilide) cleaved from the labeled substrate (DEVD-pNA). C-PAE cells or PC-3 cells (0.5×10^6 per well) were plated onto a 6-well plate precoated with fibronectin (10 μg/ml) in DMEM supplemented with 10% FCS, and incubated overnight. The next day, the medium was replaced with DMEM containing 2% FCS and then incubated overnight at 37° C. Then cells were then stimulated with bFGF (3 ng/ml) in DMEM supplemented with 2% FCS, and also containing either TNF-α (80 ng/ml, positive control) or Tumstatin (10 μg/ml), and incubated for 24 hours. Controls received PBS buffer. After 24 hours, the supernatant cells were collected, and attached cells were trypsinized and combined with the supernatant cells. Cells were counted and resuspended in cell lysis buffer (Clontech) at a concentration of 4×10^7 cells/ml. The rest of the protocol followed the manufacturer's instructions (Clontech). A specific inhibitor of Caspase-3, DEVD-fmk (Asp-Glu-Val-Asp-fluoromethyl ketone) was used to confirm the specificity of the assay. The absorbance was measured in a microplate reader (Bio-Rad, Hercules, Calif., USA) at 405 nm. The assay was repeated three times for each cell type.
Apoptosis was also evaluated by measuring Caspase-3 activity as described in Example 27, above. The results are shown in FIG. 35, which is a histogram showing Caspase-3 activity as a measure of absorbance at OD405 (y-axis) of C-PAE cells treated (x-axis) with 5 μg/ml Tum-1, Tum-2, Tum-3 or Tum-4, or 80 ng/ml TNF-α or PBS buffer (control).
Caspase-3 activity was also assayed as described above. DEVD-fmk, a specific caspase-3 inhibitor, was used as an internal control to show specificity of Tumstatin-44-131. TNF-α (80 ng/ml) was used as a positive control. The experiments were repeated three times.
The protease activity of Caspase-3 in cells treated with T3 peptide was measured spectrophotometrically by detection of the chromophore (p-nitroanilide) cleaved from the labeled substrate (DEVD-pNA). […] In PC-3 nonendothelial cells, there was no difference in Caspase-3 activity between control treatments and T3 peptide-treated cells.

Caspase-3 in PC-3 cells = assay: Caspase-3 assay; type: cell-based, human
Procedure: as §1, with “After 24 hours, the supernatant cells were collected, and attached cells were trypsinized and combined with the supernatant cells.” left out, “The rest of the protocol followed the manufacturer's instructions (Clontech). A specific inhibitor of Caspase-3, DEVD-fmk (Asp-Glu-Val-Asp-fluoromethyl ketone) was used to confirm the specificity of the assay.” left out, “The assay was repeated three times for each cell type.” left out
The results are shown in FIG. 53, which is a histogram showing caspase-3 activity (as measured at OD405, y-axis) of (x-axis) the control, control+DEVD-fmk, TNF-α, TNF-α+DEVD-fmk, Tumstatin-44-131 (1 μg/ml and 10 μg/ml), and Tumstatin-44-131 (10 μg/ml)+DEVD-fmk. […]
The protease activity of Caspase-3 in cells treated with T3 peptide was measured spectrophotometrically by detection of the chromophore (p-nitroanilide) cleaved from the labeled substrate (DEVD-pNA). […]

Molecule | Caspase-3 activity in nonendothelial PC-3 cells (Caspase-3 in PC-3 cells) | effect on Caspase-3 activity (Caspase-3 in C-PAE cells) | other results
LQRFTTMPFLFCNVNDVCNF [T3] | no difference | – | fold increase in Caspase-3 activity (Caspase-3 in C-PAE cells; 50 μg/ml T3 peptide, TNF-α 80 ng/ml): 3.6 fold; fold increase in Caspase-3 activity (Caspase-3 in C-PAE cells; T3 peptide at 10 mg/ml (so in the source)): 1.6 fold
Tumstatin: NC1 domain of the α3 chain of type IV collagen, residues 1-244 (SEQ ID NO:10) (protein, listed as Homo sapiens) GLKGKRGDSGSPATWTTRGFVFTRHSQTTAIPSCPEGTVPLYSGFSFLFVQGNQRAHGQDLGTLGSCLQRFTTMPFLFCNVNDVCNFASRNDYSYWLSTPALMPMNMAPITGRALEPYISRCTVCEGPAIAIAVHSQTTDIPPCPHGWISLWKGFSFIMFTSAGSEGTGQALASPGSCLEEFRASPFLECHGRGTCNYYSNSYSFWLASLNPERMFRKPIPSTVKAGELEKIISRCQVCMKKRH | no difference | – | –
Tum-1: residues 54 to 244 of Tumstatin, lacking the N-terminal 53 amino acids (SEQ ID NO:22) (protein, Tum-1 (Tumstatin N-53) (amino acids 54-244 of SEQ ID NO10)) QRAHGQDLGTLGSCLQRFTTMPFLFCNVNDVCNFASRNDYSYWLSTPALMPMNMAPITGRALEPYISRCTVCEGPAIAIAVHSQTTDIPPCPHGWISLWKGFSFIMFTSAGSEGTGQALASPGSCLEEFRASPFLECHGRGTCNYYSNSYSFWLASLNPERMFRKPIPSTVKAGELEKIISRCQVCMKKRH | – | increased | –
Tumstatin-44-131: residues 44 to 131 of full-length Tumstatin (SEQ ID NO:33) (protein, Tumstatin-45-132 (amino acids 45-132 of SEQ ID NO10)) FSFLFVQGNQRAHGQDLGTLGSCLQRFTTMPFLFCNVNDVCNFASRNDYSYWLSTPALMPMNMAPITGRALEPYISRCTVCEGPAIAI | not observed | – | fold increase in Caspase-3 activity (Caspase-3 in C-PAE cells; 10 μg/ml E. Coli-expressed Tumstatin-44-131, TNF-α 80 ng/ml): 4.5 fold
Tum-2: residues 1 to 132 of Tumstatin (SEQ ID NO:23) (protein, Tum-2 (amino acids 1-132 of SEQ ID NO10)) GLKGKRGDSGSPATWTTRGFVFTRHSQTTAIPSCPEGTVPLYSGFSFLFVQGNQRAHGQDLGTLGSCLQRFTTMPFLFCNVNDVCNFASRNDYSYWLSTPALMPMNMAPITGRALEPYISRCTVCEGPAIAI | – | increased | –
Tum-4: residues 181 to 244 of Tumstatin (SEQ ID NO:25) (protein, Tum-4 (amino acids 181-244 of SEQ ID NO10)) EFRASPFLECHGRGTCNYYSNSYSFWLASLNPERMFRKPIPSTVKAGELEKIISRCQVCMKKRH | – | did not | –
